Laboratory results taken from the supplement of paper PMC10567573.

B1: KLHL14 (parent)
chain: WLYCYDPVMDVWARKQDMNTKRAI

Variants of: B1
Experiment: protein stability index of a GFP-peptide fusion (GPS, HEK-293T) (PSI 1-6); higher = more stable
Conditions: c terminus: a fixed tail appended
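Further: lentivirally expressed fusions sorted by FACS into six bins by GFP to DsRed ratio, PSI derived from sequencing read proportions per bin multiplied by bin number.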

Row | Variant | protein stability index
1 | WLYCYDPVMDVWAQKQDMNTKRAI | 2.45
2 | WLYCYDPVMDVWAFKQDMNTKRAI | 1.57
3 | WLYCYDPVMDVWACKQDMNTKRAI | 1.75
4 | WLYCYDPVMDVWAAKQDMNTKRAI | 1.85
5 | WLYCYDPVMDVWALKQDMNTKRAI | 2.36
6 | WLYCYDPVMDVWAYKQDMNTKRAI | 1.81
7 | WLYCYDPVMDVWAVKQDMNTKRAI | 2.62
8 | WLYCYDPVMDVWAIKQDMNTKRAI | 1.84
9 | WLYCYDPVMDVWAGKQDMNTKRAI | 1.81
10 | WLYCYDPVMDVWAKKQDMNTKRAI | 1.9
11 | WLYCYDPVMDVWADKQDMNTKRAI | 2.11
12 | WLYCYDPVMDVWATKQDMNTKRAI | 1.54
13 | WLYCYDPVMDVWAMKQDMNTKRAI | 1.93
14 | WLYCYDPVMDVWAHKQDMNTKRAI | 1.97
15 | WLYCYDPVMDVWANKQDMNTKRAI | 1.77
16 | WLYCYDPVMDVWAEKQDMNTKRAI | 2.13
17 | WLYCYDPVMDVWASKQDMNTKRAI | 1.88
18 | WLYCYDPVMDVWAWKQDMNTKRAI | 1.85
19 | WLYCYDPVMDVWAPKQDMNTKRAI | 2.23
20 | WLYCYDPVMKVWARKQDMNTKRAI | 3.09
21 | WLYCYDPVMGVWARKQDMNTKRAI | 2.77
22 | WLYCYDPVMMVWARKQDMNTKRAI | 1.59
23 | WLYCYDPVMYVWARKQDMNTKRAI | 1.92
24 | WLYCYDPVMRVWARKQDMNTKRAI | 2.34

Row | Variant | protein stability index
25 | WLYCYDPVMEVWARKQDMNTKRAI | 2.19
26 | WLYCYDPVMSVWARKQDMNTKRAI | 1.99
27 | WLYCYDPVMWVWARKQDMNTKRAI | 2.71
28 | WLYCYDPVMFVWARKQDMNTKRAI | 1.54
29 | WLYCYDPVMTVWARKQDMNTKRAI | 1.69
30 | WLYCYDPVMIVWARKQDMNTKRAI | 1.8
31 | WLYCYDPVMAVWARKQDMNTKRAI | 1.88
32 | WLYCYDPVMQVWARKQDMNTKRAI | 2.74
33 | WLYCYDPVMPVWARKQDMNTKRAI | 1.72
34 | WLYCYDPVMLVWARKQDMNTKRAI | 2.82
35 | WLYCYDPVMCVWARKQDMNTKRAI | 1.91
36 | WLYCYDPVMNVWARKQDMNTKRAI | 2.1
37 | WLYCYDPVMVVWARKQDMNTKRAI | 1.52
38 | WLYCYDPVMHVWARKQDMNTKRAI | 2.11
39 | WLYCYDPVMDVKARKQDMNTKRAI | 2.03
40 | WLYCYDPVMDVEARKQDMNTKRAI | 2.06
41 | WLYCYDPVMDVLARKQDMNTKRAI | 2.07
42 | WLYCYDPVMDVMARKQDMNTKRAI | 1.77
43 | WLYCYDPVMDVNARKQDMNTKRAI | 2.2
44 | WLYCYDPVMDVCARKQDMNTKRAI | 2.09
45 | WLYCYDPVMDVQARKQDMNTKRAI | 1.92
46 | WLYCYDPVMDVSARKQDMNTKRAI | 1.5
47 | WLYCYDPVMDVAARKQDMNTKRAI | 1.89
48 | WLYCYDPVMDVPARKQDMNTKRAI | 1.76

Row | Variant | protein stability index
49 | WLYCYDPVMDVDARKQDMNTKRAI | 2.23
50 | WLYCYDPVMDVTARKQDMNTKRAI | 2.11
51 | WLYCYDPVMDVHARKQDMNTKRAI | 2.04
52 | WLYCYDPVMDVFARKQDMNTKRAI | 1.86
53 | WLYCYDPVMDVGARKQDMNTKRAI | 2.1
54 | WLYCYDPVMDVYARKQDMNTKRAI | 2.09
55 | WLYCYDPVMDVVARKQDMNTKRAI | 1.95
56 | WLYCYDPVMDVRARKQDMNTKRAI | 1.78
57 | WLYCYDPVMDVIARKQDMNTKRAI | 1.47
58 | WLYCYDPVMDVWARRQDMNTKRAI | 2.14
59 | WLYCYDPVMDVWARLQDMNTKRAI | 2.21
60 | WLYCYDPVMDVWARPQDMNTKRAI | 1.64
61 | WLYCYDPVMDVWARFQDMNTKRAI | 1.76
62 | WLYCYDPVMDVWARTQDMNTKRAI | 1.71
63 | WLYCYDPVMDVWARCQDMNTKRAI | 2.29
64 | WLYCYDPVMDVWARIQDMNTKRAI | 2.11
65 | WLYCYDPVMDVWARSQDMNTKRAI | 1.79
66 | WLYCYDPVMDVWARWQDMNTKRAI | 1.48
67 | WLYCYDPVMDVWARVQDMNTKRAI | 1.89
68 | WLYCYDPVMDVWARGQDMNTKRAI | 1.56
69 | WLYCYDPVMDVWARAQDMNTKRAI | 1.68
70 | WLYCYDPVMDVWARNQDMNTKRAI | 2.03
71 | WLYCYDPVMDVWARYQDMNTKRAI | 2.08
72 | WLYCYDPVMDVWARDQDMNTKRAI | 1.97

Row | Variant | protein stability index
73 | WLYCYDPVMDVWARQQDMNTKRAI | 1.95
74 | WLYCYDPVMDVWARMQDMNTKRAI | 1.54
75 | WLYCYDPVMDVWARHQDMNTKRAI | 1.94
76 | WLYCYDPVMDVWAREQDMNTKRAI | 2.21
77 | WLYCYDPVVDVWARKQDMNTKRAI | 1.65
78 | WLYCYDPVLDVWARKQDMNTKRAI | 2.17
79 | WLYCYDPVSDVWARKQDMNTKRAI | 2.26
80 | WLYCYDPVPDVWARKQDMNTKRAI | 2.32
81 | WLYCYDPVTDVWARKQDMNTKRAI | 2.55
82 | WLYCYDPVCDVWARKQDMNTKRAI | 2.35
83 | WLYCYDPVFDVWARKQDMNTKRAI | 1.62
84 | WLYCYDPVGDVWARKQDMNTKRAI | 1.77
85 | WLYCYDPVEDVWARKQDMNTKRAI | 1.74
86 | WLYCYDPVKDVWARKQDMNTKRAI | 2.02
87 | WLYCYDPVIDVWARKQDMNTKRAI | 1.9
88 | WLYCYDPVADVWARKQDMNTKRAI | 2.62
89 | WLYCYDPVHDVWARKQDMNTKRAI | 2.24
90 | WLYCYDPVDDVWARKQDMNTKRAI | 1.92
91 | WLYCYDPVQDVWARKQDMNTKRAI | 2.6
92 | WLYCYDPVNDVWARKQDMNTKRAI | 2.18
93 | WLYCYDPVRDVWARKQDMNTKRAI | 2.09
94 | WLYCYDPVYDVWARKQDMNTKRAI | 2.01
95 | WLYCYDPVWDVWARKQDMNTKRAI | 1.64
96 | WLYCYNPVMDVWARKQDMNTKRAI | 1.78

Row | Variant | protein stability index
97 | WLYCYVPVMDVWARKQDMNTKRAI | 2.23
98 | WLYCYWPVMDVWARKQDMNTKRAI | 3.19
99 | WLYCYQPVMDVWARKQDMNTKRAI | 2.29
100 | WLYCYYPVMDVWARKQDMNTKRAI | 2.54
101 | WLYCYTPVMDVWARKQDMNTKRAI | 2.47
102 | WLYCYRPVMDVWARKQDMNTKRAI | 1.4
103 | WLYCYSPVMDVWARKQDMNTKRAI | 1.7
104 | WLYCYMPVMDVWARKQDMNTKRAI | 2.33
105 | WLYCYPPVMDVWARKQDMNTKRAI | 1.84
106 | WLYCYDPVMDVWARKADMNTKRAI | 2.42
107 | WLYCYDPVMDVWARKKDMNTKRAI | 1.7
108 | WLYCYDPVMDVWARKDDMNTKRAI | 2.15
109 | WLYCYDPVMDVWARKCDMNTKRAI | 1.81
110 | WLYCYDPVMDVWARKEDMNTKRAI | 2.4
111 | WLYCYDPVMDVWARKGDMNTKRAI | 2.25
112 | WLYCYDPVMDVWARKIDMNTKRAI | 1.81
113 | WLYCYDPVMDVWARKHDMNTKRAI | 2.27
114 | WLYCYDPVMDVWARKFDMNTKRAI | 1.85
115 | WLYCYDPVMDCWARKQDMNTKRAI | 1.91
116 | WLYCYDPVMDHWARKQDMNTKRAI | 1.61
117 | WLYCYDPVMDPWARKQDMNTKRAI | 1.65
118 | WLYCYDPVMDKWARKQDMNTKRAI | 1.95
119 | WLYCYDPVMDQWARKQDMNTKRAI | 1.98
120 | WLYCYDPVMDEWARKQDMNTKRAI | 2.3

Row | Variant | protein stability index
121 | WLYCYDPVMDYWARKQDMNTKRAI | 1.92
122 | WLYCYDPVMDTWARKQDMNTKRAI | 2.32
123 | WLYCYDPVMDAWARKQDMNTKRAI | 1.93
124 | WLYCYDPVMDSWARKQDMNTKRAI | 2.52
125 | WLYCYDPVMDLWARKQDMNTKRAI | 2.04
126 | WLYCYDPVMDNWARKQDMNTKRAI | 2.21
127 | WLYCYDPVMDIWARKQDMNTKRAI | 1.43
128 | WLYCYDPVMDMWARKQDMNTKRAI | 1.61
129 | WLYCYDPVMDDWARKQDMNTKRAI | 1.98
130 | WLYCYDPVMDFWARKQDMNTKRAI | 2.32
131 | WLYCYDPVMDWWARKQDMNTKRAI | 1.76
132 | WLYCYDPVMDRWARKQDMNTKRAI | 2.1
133 | WLYCYDPVMDGWARKQDMNTKRAI | 1.62
134 | WLYCYDVVMDVWARKQDMNTKRAI | 2.08
135 | WLYCYDIVMDVWARKQDMNTKRAI | 1.93
136 | WLYCYDSVMDVWARKQDMNTKRAI | 1.62
137 | WLYCYDMVMDVWARKQDMNTKRAI | 1.98
138 | WLYCYDAVMDVWARKQDMNTKRAI | 2.87
139 | WLYCYDCVMDVWARKQDMNTKRAI | 2.33
140 | WLYCYDTVMDVWARKQDMNTKRAI | 1.64
141 | WLYCYDDVMDVWARKQDMNTKRAI | 2.28
142 | WLYCYDFVMDVWARKQDMNTKRAI | 3.12
143 | WLYCYDRVMDVWARKQDMNTKRAI | 1.87
144 | WLYCYDEVMDVWARKQDMNTKRAI | 1.88

Row | Variant | protein stability index
145 | WLYCYDYVMDVWARKQDMNTKRAI | 2.15
146 | WLYCYDQVMDVWARKQDMNTKRAI | 1.51
147 | WLYCYDKVMDVWARKQDMNTKRAI | 2.24
148 | WLYCYDGVMDVWARKQDMNTKRAI | 1.94
149 | WLYCYDNVMDVWARKQDMNTKRAI | 1.84
150 | WLYCYDHVMDVWARKQDMNTKRAI | 2.1
151 | WLYCYDPWMDVWARKQDMNTKRAI | 1.95
152 | WLYCYDPSMDVWARKQDMNTKRAI | 1.89
153 | WLYCYDPMMDVWARKQDMNTKRAI | 2.26
154 | WLYCYDPIMDVWARKQDMNTKRAI | 2.03
155 | WLYCYDPGMDVWARKQDMNTKRAI | 1.58
156 | WLYCYDPLMDVWARKQDMNTKRAI | 2.25
157 | WLYCYDPHMDVWARKQDMNTKRAI | 2.34
158 | WLYCYDPPMDVWARKQDMNTKRAI | 1.8
159 | WLYCYDPNMDVWARKQDMNTKRAI | 1.75
160 | WLYCYDPFMDVWARKQDMNTKRAI | 2.18
161 | WLYCYDPTMDVWARKQDMNTKRAI | 2.45
162 | WLYCYDPYMDVWARKQDMNTKRAI | 2.14
163 | WLYCYDPDMDVWARKQDMNTKRAI | 2.37
164 | WLYCYDPEMDVWARKQDMNTKRAI | 2.17
165 | WLYCYDPRMDVWARKQDMNTKRAI | 1.92
166 | WLYCYDPQMDVWARKQDMNTKRAI | 1.78
167 | WLYCYDPKMDVWARKQDMNTKRAI | 1.88
168 | WLYCYDPAMDVWARKQDMNTKRAI | 1.76

Row | Variant | protein stability index
169 | WLYCYDPCMDVWARKQDMNTKRAI | 1.81
170 | WLYCYDPVMDVWTRKQDMNTKRAI | 2.1
171 | WLYCYDPVMDVWNRKQDMNTKRAI | 2.46
172 | WLYCYDPVMDVWERKQDMNTKRAI | 2.36
173 | WLYCYDPVMDVWMRKQDMNTKRAI | 1.96
174 | WLYCYDPVMDVWPRKQDMNTKRAI | 1.82
175 | WLYCYDPVMDVWHRKQDMNTKRAI | 2.67
176 | WLYCYDPVMDVWDRKQDMNTKRAI | 2.84
177 | WLYCYDPVMDVWRRKQDMNTKRAI | 1.8
178 | WLYCYDPVMDVWWRKQDMNTKRAI | 2.44
179 | WLYCYDPVMDVWKRKQDMNTKRAI | 2.52
180 | WLYCYDPVMDVWFRKQDMNTKRAI | 1.57
181 | WLYCYDPVMDVWVRKQDMNTKRAI | 2.13
182 | WLYCYDPVMDVWLRKQDMNTKRAI | 1.97
183 | WLYCYDPVMDVWYRKQDMNTKRAI | 1.87
184 | WLYCYDPVMDVWIRKQDMNTKRAI | 2.18
185 | WLYCYDPVMDVWQRKQDMNTKRAI | 2.46
186 | WLYCYDPVMDVWCRKQDMNTKRAI | 1.81
187 | WLYCYDPVMDVWGRKQDMNTKRAI | 1.97
188 | WLYCYDPVMDVWSRKQDMNTKRAI | 2
